Assay [1] has as its target EGF receptor (Homo sapiens) (UniProt P00533). Conditions: cited from earlier work.
The target of assay [2] is Ik2-MBPHis fusion protein (Drosophila). Kind of assay: SPR; ProteOn XPR36, GLC chip; Ik2-MBPHis (1400 RU) and Sec13-MBP (5500 RU) amine-coupled; Spn-F injected at six concentrations 0.1625 to 5 μM; PBS pH 7.4, 0.005% Tween 20, 25°C; global fit to 1:1 Langmuir model. For orientation: Surface plasmon resonance follows binding to a sensor surface in real time, without labels.

As for EGF (from UniProt P01133), the Kd in assay [1] is 410 nM.

B1: Spn-F, recombinant, MBP-His6 tag cleaved (natural protein)
chain: MEASAAKITPMASSMSASGSTNSPSSEKMNYALQVALQTIKERCIQLQRRVASMEEENQQLREASSRSEGAPRANEIGVTGDVLSLKAQVSELQRQKEQLEEHIGMVSNENRRLWSRLSQISKDQQLNALPSSTDSRAQQNQNLVRSKTFTQHSPNPHLRQKMLSDGIKDLSLEEIALDDFGASSEELGYPYNLQKVEETTSEPDANVDAKRCLDGLQELRREAMKQQQELRSVMTLLENRIALKPCPECAQKTIKKPEMADKSLETDDSLTSELKNYESQHNGHNGTPPSQRINIIQEKIKADAADAMEKTCPMCGKQYSSQVSFNAFREHVEMHFIDDALELESENSIERQFEFVSHAVGDF
In assay [2], B1 came in with a Kd of 407 nM, a koff of 0.00169 s⁻¹ and a kon of 4150 M⁻¹ s⁻¹.

One may read the Kd as the constant that tells how readily two partners part at equilibrium. In general, koff refers to the first-order rate constant of dissociation. A high value points to fast dissociation. One may read the kon as a measure of how fast the partners come together. A low value points to slower complex formation.

These data come from PMC2567969.
